B1: Myosin-binding protein C, cardiac-type (Mus musculus), O70468 (parent)
chain: MPEPGKKPVSAFNKKPRSAEVTAGSAAVFEAETERSGVMVRWQRDGSDITANDKYGLAAEGKRHTLTVRDASPDDQGSYAVIAGSSKVKFDLKVTEPAPPEKAESEVAPGAPEEVPAPATELEESVSSPEGSVSVTQDGSAAEHQGAPDDPIGLFLMRPQDGEVTVGGSIVFSARVAGASLLKPPVVKWFKGKWVDLSSKVGQHLQLHDSYDRASKVYLFELHITDAQTTSAGGYRCEVSTKDKFDSCNFNLTVHEAIGSGDLDLRSAFRRTSLAGAGRRTSDSHEDAGTPDFSSLLKKRDSFRRDSKLEAPAEEDVWEILRQAPPSEYERIAFQHGVEACHRPLKRLKGMKQDEKKSTAFQKKLEPAYQVNKGHKIRLTVELADPDAEVKWLKNGQEIQMSGSKYIFESVGAKRTLTISQCSLADDAAYQCVVGGEKCSTELFVKEPPVLITRSLEDQLVMVGQRVEFECEVSEEGAQVKWLKDGVELTREETFKYRFKKDGRKHHLIINEATLEDAGHYAVRTSGGQSLAELIVQEKKLEVYQSIADLAVGAKDQAVFKCEVSDENVRGVWLKNGKELVPDNRIKVSHIGRVHKLTIDDVTPADEADYSFVPEGFACNLSAKLHFMEVKIDFVPRQEPPKIHLDCPGSTPDTIVVVTGNKLRLDVPISGDPAPTVVWQKTVTQGKKASAGPHPDAPEDAGADEEWVFDKKLLCETEGRVRVETTKDRSVFTVEGAEKEDEGVYTVTVKNPVGEDQVNLTVKVIDVPDAPAAPKISNVGEDSCTVQWEPPAYDGGQPVLGYILERKKKKSYRWMRLNFDLLRELSHEARRMIEGVAYEMRVYAVNAVGMSRPSPASQPFMPIGPPGEPTHLAVEDVSDTTVSLKWRPPERVGAGGLDGYSVEYCQEGCSEWTPALQGLTERRSMLVKDLPTGARLLFRVRAHNVAGPGGPIVTKEPVTVQEILQRPRLQLPRHLRQTIQKKVGEPVNLLIPFQGKPRPQVTWTKEGQPLAGEEVSIRNSPTDTILFIRAARRTHSGTYQVTVRIENMEDKATLILQIVDKPSPPQDIRIVETWGFNVALEWKPPQDDGNTEIWGYTVQKADKKTMEWFTVLEHYRRTHCVVSELIIGNGYYFRVFSHNMVGSSDKAAATKEPVFIPRPGITYEPPKYKALDFSEAPSFTQPLANRSIIAGYNAILCCAVRGSPKPKISWFKNGLDLGEDARFRMFCKQGVLTLEIRKPCPYDGGVYVCRATNLQGEAQCECRLEVRVPQ

Variants of: B1
Details: with myh6_mouse Myh6, Q02566
Sequence of myh6_mouse Myh6, Q02566 (Q02566 whole entry): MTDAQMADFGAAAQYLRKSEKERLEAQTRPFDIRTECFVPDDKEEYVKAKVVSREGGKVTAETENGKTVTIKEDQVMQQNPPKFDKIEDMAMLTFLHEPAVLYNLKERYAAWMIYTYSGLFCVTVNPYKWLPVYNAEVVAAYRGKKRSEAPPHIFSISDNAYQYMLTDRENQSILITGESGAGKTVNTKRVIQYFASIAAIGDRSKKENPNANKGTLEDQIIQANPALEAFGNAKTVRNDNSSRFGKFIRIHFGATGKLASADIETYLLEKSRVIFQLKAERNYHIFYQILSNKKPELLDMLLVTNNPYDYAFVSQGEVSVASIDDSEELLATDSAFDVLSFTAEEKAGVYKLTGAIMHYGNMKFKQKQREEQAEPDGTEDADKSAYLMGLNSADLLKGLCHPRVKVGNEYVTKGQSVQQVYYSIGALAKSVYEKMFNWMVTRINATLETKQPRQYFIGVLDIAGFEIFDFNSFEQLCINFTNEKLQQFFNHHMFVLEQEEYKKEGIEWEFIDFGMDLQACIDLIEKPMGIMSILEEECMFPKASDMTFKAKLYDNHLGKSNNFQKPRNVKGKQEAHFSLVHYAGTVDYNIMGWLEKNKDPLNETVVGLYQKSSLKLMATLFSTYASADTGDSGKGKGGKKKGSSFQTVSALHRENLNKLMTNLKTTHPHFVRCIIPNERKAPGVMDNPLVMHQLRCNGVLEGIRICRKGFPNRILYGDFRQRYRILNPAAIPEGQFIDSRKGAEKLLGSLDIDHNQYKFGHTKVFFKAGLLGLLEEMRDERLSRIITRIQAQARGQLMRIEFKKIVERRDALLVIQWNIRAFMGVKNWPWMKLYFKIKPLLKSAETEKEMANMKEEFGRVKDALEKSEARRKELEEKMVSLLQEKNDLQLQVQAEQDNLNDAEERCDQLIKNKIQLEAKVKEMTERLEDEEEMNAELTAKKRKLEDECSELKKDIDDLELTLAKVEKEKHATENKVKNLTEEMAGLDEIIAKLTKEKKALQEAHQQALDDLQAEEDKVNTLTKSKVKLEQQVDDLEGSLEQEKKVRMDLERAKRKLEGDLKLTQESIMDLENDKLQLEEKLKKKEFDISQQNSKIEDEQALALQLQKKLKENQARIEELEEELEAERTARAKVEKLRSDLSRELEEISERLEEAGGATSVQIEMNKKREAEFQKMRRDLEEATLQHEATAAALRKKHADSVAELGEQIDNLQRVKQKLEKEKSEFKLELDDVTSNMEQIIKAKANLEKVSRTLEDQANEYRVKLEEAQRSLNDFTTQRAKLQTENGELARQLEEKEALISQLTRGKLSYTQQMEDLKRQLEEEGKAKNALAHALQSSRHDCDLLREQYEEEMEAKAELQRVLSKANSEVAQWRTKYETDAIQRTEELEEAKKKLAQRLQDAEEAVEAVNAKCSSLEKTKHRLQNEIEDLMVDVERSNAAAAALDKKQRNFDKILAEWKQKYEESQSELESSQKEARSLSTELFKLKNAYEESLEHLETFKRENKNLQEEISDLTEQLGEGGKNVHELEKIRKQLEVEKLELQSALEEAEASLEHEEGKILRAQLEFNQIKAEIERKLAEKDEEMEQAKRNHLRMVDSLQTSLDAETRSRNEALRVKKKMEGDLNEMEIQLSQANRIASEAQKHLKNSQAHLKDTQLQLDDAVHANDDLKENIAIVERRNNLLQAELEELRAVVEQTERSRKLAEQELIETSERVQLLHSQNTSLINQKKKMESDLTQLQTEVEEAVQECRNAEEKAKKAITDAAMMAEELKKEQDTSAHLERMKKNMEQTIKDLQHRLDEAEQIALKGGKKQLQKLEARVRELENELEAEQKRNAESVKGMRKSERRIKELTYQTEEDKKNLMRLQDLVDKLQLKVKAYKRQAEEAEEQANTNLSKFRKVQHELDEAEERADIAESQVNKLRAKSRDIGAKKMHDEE

| Variant | effect of a mutation on the interaction |
| --- | --- |
| R266A;R270A;R271A | disrupting interaction strength |
| R279A;R280A;T281A | disrupting interaction strength |

The remaining lines, values ahead:

| effect of a mutation on the interaction | Variant |
| --- | --- |
| disrupting interaction strength | K298A;K299A;R300A |
| disrupting interaction strength | K298A;K299A |

Variants of: B1
Details: with actc_mouse Actc1, P68033

| effect of a mutation on the interaction | Variant |
| --- | --- |
| disrupting interaction strength | R304A;R305A |
| disrupting interaction strength | K188A;K191A;K193A |
| disrupting interaction strength | R279A;R280A |
| disrupting interaction strength | R279A;R280A;T281A |

Reference: IntAct's records for PubMed 22982234
